For the test, the target named is megalin (low-density lipoprotein receptor-related protein 2) (mouse (endogenous in hippocampal neurons)) (UniProt A2ARV4).
megalin (low-density lipoprotein receptor-related protein 2) (mouse (endogenous in hippocampal neurons)), sequence (A2ARV4 26-4660): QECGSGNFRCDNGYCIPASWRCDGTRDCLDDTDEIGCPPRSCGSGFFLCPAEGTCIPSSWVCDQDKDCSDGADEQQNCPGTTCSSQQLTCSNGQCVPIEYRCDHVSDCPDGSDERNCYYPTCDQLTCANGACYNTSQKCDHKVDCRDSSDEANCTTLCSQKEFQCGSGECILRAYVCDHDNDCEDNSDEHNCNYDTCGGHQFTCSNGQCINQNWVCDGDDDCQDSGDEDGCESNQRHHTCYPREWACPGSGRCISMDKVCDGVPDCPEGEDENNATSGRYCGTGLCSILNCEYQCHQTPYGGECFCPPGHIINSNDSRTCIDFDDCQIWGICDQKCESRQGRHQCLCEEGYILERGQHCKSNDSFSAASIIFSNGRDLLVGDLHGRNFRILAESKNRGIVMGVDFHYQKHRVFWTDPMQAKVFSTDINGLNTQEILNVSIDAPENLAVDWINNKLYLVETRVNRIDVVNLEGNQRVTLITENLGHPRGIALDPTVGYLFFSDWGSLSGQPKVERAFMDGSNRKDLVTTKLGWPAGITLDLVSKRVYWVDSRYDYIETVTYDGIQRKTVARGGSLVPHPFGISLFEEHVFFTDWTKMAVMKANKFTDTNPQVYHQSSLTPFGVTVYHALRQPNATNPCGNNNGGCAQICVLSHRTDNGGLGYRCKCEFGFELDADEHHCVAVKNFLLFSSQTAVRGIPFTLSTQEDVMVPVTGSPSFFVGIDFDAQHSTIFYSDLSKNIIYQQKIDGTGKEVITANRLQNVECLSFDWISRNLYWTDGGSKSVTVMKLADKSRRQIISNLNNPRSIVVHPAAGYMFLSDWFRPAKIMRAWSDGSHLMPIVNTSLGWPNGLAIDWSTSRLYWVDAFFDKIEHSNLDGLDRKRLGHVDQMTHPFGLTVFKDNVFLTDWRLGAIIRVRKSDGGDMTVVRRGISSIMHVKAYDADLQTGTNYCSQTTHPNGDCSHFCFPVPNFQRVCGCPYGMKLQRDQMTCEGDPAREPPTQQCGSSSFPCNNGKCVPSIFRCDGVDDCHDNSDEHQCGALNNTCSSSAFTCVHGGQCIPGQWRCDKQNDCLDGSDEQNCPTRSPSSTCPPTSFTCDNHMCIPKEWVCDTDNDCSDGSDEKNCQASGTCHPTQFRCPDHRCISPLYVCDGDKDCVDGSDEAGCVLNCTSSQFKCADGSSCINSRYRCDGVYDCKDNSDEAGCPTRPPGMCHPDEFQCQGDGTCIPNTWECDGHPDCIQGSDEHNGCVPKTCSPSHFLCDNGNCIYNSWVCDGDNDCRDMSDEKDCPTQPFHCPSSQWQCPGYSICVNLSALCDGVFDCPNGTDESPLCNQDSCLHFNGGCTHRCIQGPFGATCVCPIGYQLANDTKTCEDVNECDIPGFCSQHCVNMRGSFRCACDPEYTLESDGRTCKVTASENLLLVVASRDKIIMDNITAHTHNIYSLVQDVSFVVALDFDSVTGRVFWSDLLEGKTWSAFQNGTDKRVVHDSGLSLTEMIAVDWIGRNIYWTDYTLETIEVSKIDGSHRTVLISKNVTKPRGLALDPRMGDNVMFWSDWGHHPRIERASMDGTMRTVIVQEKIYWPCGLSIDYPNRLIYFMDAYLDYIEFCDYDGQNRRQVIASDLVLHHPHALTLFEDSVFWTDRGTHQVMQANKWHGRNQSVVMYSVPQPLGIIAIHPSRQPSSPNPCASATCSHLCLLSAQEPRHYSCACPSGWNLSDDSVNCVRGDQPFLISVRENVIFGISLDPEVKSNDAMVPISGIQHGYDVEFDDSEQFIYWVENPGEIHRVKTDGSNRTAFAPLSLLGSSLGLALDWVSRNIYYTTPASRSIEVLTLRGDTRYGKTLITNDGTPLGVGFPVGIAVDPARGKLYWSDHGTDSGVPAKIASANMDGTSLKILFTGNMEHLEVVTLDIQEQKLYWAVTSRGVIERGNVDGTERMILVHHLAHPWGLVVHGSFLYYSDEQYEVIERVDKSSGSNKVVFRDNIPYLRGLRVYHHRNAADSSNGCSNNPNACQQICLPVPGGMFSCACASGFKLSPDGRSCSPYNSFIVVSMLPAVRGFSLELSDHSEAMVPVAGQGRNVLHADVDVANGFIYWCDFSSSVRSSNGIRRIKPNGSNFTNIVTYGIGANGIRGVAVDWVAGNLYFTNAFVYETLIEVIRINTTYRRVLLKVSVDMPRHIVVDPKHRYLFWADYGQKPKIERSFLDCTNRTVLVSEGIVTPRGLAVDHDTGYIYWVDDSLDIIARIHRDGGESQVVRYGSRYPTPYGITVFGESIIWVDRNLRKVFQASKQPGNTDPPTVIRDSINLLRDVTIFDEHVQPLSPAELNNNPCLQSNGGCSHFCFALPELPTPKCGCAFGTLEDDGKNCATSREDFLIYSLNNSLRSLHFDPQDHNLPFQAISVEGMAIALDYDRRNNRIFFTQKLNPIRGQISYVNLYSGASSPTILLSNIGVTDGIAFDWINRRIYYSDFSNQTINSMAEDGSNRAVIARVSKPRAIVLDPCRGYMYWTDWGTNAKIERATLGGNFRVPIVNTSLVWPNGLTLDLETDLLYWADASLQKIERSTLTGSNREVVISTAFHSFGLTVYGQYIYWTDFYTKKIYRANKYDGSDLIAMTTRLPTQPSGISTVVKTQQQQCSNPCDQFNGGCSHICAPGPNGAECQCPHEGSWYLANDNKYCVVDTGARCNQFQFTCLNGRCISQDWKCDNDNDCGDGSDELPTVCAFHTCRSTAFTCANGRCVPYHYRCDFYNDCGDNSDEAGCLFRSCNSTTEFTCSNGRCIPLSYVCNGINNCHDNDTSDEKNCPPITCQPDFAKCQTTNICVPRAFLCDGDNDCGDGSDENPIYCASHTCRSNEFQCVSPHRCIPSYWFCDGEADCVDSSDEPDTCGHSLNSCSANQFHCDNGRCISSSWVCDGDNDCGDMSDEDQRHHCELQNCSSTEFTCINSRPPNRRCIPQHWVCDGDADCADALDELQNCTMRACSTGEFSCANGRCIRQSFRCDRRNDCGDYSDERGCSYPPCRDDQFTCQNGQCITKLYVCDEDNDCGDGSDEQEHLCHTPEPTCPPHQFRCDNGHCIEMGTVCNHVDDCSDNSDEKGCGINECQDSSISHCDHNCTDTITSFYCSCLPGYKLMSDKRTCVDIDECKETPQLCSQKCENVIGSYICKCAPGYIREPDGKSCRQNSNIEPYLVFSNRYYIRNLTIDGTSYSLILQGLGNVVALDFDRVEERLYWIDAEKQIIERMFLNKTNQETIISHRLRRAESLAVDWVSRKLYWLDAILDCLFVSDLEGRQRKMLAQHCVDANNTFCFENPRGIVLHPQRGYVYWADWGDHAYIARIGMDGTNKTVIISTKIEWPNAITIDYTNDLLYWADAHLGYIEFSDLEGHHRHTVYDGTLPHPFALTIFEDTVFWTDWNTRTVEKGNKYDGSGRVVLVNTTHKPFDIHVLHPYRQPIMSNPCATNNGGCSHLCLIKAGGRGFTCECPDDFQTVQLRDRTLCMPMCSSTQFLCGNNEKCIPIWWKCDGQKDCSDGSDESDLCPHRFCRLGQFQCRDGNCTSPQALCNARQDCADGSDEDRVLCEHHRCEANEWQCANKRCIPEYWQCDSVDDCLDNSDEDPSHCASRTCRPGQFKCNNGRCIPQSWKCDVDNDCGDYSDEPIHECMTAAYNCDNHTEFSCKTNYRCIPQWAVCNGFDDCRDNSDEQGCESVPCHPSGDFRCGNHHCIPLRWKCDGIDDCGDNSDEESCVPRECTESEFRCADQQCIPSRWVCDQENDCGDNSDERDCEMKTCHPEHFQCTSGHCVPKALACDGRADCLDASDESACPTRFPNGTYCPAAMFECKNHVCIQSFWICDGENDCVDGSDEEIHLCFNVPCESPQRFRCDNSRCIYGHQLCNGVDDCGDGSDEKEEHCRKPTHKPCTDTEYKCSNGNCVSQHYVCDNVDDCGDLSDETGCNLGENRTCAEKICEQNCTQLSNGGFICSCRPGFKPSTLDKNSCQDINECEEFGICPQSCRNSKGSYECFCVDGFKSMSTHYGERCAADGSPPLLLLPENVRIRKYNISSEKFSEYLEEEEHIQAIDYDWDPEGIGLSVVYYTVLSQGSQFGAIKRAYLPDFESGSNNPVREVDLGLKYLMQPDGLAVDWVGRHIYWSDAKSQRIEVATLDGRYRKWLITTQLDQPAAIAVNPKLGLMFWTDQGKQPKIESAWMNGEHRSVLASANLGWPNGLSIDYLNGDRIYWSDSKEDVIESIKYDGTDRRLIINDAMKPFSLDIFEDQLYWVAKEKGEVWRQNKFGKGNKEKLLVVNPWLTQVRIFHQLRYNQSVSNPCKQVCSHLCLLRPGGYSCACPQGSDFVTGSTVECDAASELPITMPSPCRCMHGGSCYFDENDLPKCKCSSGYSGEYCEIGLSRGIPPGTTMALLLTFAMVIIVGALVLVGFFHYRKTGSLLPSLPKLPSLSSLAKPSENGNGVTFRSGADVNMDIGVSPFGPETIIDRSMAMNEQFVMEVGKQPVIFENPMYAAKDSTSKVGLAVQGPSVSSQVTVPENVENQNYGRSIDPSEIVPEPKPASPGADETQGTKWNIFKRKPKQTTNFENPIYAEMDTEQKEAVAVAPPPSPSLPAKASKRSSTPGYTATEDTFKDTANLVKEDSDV

Take “recombinant mouse transthyretin (from UniProt P07309 21-147) (ligand)”: the LRP2-ICD level (western blot, anti-GFP) in TTR KO neurons transfected with short-megalin-GFP and stimulated with recombinant mouse TTR (55 µg/ml, 4 h) is 50 % increase; the LRP2-ICD level (western blot, anti-megalin) in non-transfected WT hippocampal neurons (15 DIV) after 5 min with recombinant mouse TTR (55 µg/ml) came out at 5 fold.

The values are drawn from PMC7667529.
